Experimental data taken from US20240158457A1, “INTERLEUKIN-18 RECEPTOR BINDING POLYPEPTIDES AND USES THEREOF” (Medikine, Inc., priority 2022, published 2024).

Target: human IL-18 receptor (alpha and beta subunits) on HEK-BLUE IL-18 reporter cells (human) (UniProt Q13478)
Assay: cell-based or functional assay

human IL-18 receptor (alpha and beta subunits) on HEK-BLUE IL-18 reporter cells (human), sequence (Q13478 19-541, chain 1 of 2): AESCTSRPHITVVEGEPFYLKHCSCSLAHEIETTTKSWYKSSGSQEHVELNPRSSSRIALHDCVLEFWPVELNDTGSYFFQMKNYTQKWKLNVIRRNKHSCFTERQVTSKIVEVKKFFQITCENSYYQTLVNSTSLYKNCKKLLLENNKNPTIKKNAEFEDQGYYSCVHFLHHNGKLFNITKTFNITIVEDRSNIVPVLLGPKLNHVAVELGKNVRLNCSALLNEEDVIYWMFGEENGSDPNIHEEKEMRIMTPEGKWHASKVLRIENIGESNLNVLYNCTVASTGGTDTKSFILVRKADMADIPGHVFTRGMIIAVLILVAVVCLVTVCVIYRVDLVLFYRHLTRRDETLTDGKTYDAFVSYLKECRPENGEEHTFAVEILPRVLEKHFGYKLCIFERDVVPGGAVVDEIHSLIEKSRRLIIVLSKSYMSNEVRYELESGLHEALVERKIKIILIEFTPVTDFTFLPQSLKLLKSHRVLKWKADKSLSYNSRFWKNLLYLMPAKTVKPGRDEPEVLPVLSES
human IL-18 receptor (alpha and beta subunits) on HEK-BLUE IL-18 reporter cells (human), sequence (O95256 20-599, chain 2 of 2, further chain): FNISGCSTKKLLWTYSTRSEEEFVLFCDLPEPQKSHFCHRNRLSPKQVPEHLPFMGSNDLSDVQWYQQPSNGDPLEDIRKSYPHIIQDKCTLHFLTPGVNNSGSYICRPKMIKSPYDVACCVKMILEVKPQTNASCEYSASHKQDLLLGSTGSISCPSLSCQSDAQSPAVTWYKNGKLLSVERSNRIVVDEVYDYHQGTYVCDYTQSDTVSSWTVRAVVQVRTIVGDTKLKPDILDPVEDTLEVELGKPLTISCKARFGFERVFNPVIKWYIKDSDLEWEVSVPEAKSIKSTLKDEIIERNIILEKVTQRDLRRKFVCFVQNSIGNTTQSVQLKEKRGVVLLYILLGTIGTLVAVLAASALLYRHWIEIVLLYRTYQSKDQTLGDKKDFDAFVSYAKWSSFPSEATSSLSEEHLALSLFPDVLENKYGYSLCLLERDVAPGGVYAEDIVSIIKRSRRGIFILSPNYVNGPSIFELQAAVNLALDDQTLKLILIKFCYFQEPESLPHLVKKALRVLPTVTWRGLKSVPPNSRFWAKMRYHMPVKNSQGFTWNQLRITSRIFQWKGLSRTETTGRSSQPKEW

EC50, NF-κB reporter activity in HEK-BLUE IL-18 cells: 0.38 pM
Substance: Human recombinant IL-18 (R&D Systems #9124-IL-050/CF) (from UniProt Q14116 1-193) (ligand)
